Consider 1 substance from publication PMC8556265.

This test has as its target Lsi1_(cryst) (rice Low silicon rice 1, ΔN44/ΔC24/K50R/C66A/T93V/C139A/K232R/T253V/K264R) (rice (Oryza sativa cv. Nipponbare)). The test is described as follows: crystal structure; X-ray, 1.8 Å; sitting drop vapour diffusion at 7 °C, 39-50% PEG 400, 100 mM Gly-NaOH pH 9.5, 1% OG, 0.1% CHS; space group P2_(1), two tetramers built.

For the substance “Lsi1_(cryst) (rice Low silicon rice 1, ΔN44/ΔC24/K50R/C66A/T93V/C139A/K232R/T253V/K264R) (domain or fragment)”, the stoichiometry N (usually a count of units in the complex or per binding partner) turned out to be 4.
